Test results from patent publication US20180142032A1 (Sanofi, published 2018).

Legend:
Experiment in all cases: flow cytometry, transfected 293-F cells, experiment 2
mLAMP1_ΔGYQTI = target: T1, mLAMP1_ΔGYQTI (mouse, UniProt P11438 25-369)
T1 construct: on cells; also called pXL6009; murine LAMP1; not shown: murine transmembrane domain and cytoplasmic tail with GYQTI replaced by 5 Ala
T1 sequence: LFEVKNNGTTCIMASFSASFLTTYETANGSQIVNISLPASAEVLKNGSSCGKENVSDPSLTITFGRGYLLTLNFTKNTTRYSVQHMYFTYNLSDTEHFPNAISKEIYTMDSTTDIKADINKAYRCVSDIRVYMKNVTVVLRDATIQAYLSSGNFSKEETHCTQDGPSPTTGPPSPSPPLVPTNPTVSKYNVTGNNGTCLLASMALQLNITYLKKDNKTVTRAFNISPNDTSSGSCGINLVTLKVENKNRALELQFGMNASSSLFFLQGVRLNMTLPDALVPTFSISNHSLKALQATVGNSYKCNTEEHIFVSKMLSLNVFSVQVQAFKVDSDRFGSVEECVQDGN

mLAMP1_hseq6-11_ΔGYQTI = target: T2, mLAMP1_hseq6-11_ΔGYQTI (mouse; human, UniProt P11438 25-369)
T2 construct: on cells; also called pXL6041; not shown: murine transmembrane domain and cytoplasmic tail with GYQTI replaced by 5 Ala
T2 chain: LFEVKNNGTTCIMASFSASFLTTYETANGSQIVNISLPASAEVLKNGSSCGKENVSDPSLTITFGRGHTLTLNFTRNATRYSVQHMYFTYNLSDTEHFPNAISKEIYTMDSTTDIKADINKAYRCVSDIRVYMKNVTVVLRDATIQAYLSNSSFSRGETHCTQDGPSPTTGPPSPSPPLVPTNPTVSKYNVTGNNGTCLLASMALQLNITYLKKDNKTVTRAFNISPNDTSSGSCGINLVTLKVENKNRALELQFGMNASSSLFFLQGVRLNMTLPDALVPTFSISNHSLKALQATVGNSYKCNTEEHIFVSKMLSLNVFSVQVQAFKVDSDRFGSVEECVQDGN

mLAMP1_hseq11_ΔGYQTI = target: T3, mLAMP1_hseq11_ΔGYQTI (mouse; human, UniProt P11438 25-369)
T3 construct: on cells; numbering read as for pXL6041; also called pXL6048; not shown: murine transmembrane domain and cytoplasmic tail with GYQTI replaced by 5 Ala
T3 chain: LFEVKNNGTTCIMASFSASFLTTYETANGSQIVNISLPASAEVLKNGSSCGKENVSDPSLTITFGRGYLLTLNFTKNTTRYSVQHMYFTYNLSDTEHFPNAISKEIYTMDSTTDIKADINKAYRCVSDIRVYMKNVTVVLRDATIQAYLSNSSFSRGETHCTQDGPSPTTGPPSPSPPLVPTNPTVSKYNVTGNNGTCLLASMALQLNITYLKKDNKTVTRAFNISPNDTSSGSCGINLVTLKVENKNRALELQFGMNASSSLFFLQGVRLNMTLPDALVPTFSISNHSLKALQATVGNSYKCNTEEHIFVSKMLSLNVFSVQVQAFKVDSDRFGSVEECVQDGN

mLAMP1_hseq6-9-11_ΔGYQTI = target: T4, mLAMP1_hseq6-9-11_ΔGYQTI (mouse; human, UniProt P11438 25-369)
T4 construct: on cells; numbering read as for pXL6041; also called pXL6092; not shown: murine transmembrane domain and cytoplasmic tail with GYQTI replaced by 5 Ala
T4 chain: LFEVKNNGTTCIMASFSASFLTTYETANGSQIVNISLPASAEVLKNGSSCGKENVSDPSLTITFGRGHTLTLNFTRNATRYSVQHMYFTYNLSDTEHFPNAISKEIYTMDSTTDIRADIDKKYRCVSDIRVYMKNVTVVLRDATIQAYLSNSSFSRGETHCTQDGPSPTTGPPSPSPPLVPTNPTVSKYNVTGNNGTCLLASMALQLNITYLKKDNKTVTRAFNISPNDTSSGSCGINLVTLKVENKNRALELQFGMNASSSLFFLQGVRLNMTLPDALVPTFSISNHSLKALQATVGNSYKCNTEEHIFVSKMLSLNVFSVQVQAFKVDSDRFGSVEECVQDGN

mLAMP1_hseq6_ΔGYQTI = target: T5, mLAMP1_hseq6_ΔGYQTI (mouse; human, UniProt P11438 25-369)
T5 construct: on cells; numbering read as for pXL6041; also called pXL6047; not shown: murine transmembrane domain and cytoplasmic tail with GYQTI replaced by 5 Ala
T5 chain: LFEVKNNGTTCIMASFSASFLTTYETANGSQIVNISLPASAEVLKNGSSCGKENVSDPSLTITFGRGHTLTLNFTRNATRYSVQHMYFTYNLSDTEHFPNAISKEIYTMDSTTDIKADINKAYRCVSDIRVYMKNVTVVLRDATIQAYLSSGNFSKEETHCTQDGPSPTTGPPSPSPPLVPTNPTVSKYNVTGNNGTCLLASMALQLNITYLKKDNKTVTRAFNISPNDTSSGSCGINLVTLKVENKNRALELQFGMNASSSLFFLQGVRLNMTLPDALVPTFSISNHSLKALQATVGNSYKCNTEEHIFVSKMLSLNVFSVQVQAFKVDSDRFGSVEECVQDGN

hLAMP1_ΔGYQTI = target: T6, hLAMP1_ΔGYQTI (human, UniProt P11279 29-412)
T6 construct: also called pXL5626
T6 sequence: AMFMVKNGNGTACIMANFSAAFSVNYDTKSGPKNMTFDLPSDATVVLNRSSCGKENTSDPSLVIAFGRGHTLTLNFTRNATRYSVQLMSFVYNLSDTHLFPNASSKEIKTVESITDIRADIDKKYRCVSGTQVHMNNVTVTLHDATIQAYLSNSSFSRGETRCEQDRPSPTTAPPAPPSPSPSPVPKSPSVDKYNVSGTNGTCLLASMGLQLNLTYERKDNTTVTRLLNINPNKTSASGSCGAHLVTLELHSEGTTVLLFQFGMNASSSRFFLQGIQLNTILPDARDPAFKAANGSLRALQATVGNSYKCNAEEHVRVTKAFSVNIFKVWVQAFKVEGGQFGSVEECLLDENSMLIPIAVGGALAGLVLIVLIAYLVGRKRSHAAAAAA

mean fluorescence (mLAMP1_ΔGYQTI): 2
mean fluorescence (mLAMP1_hseq6-11_ΔGYQTI): 211
mean fluorescence (mLAMP1_hseq11_ΔGYQTI): 2
mean fluorescence (mLAMP1_hseq6-9-11_ΔGYQTI): 499
mean fluorescence (mLAMP1_hseq6_ΔGYQTI): 3
mean fluorescence (hLAMP1_ΔGYQTI): 551
B1: MAb1 (antibody, mouse IgG2a, kappa)
heavy: QVQLQQSGAELVKPGASVKMSCKASGYIFTNYNIHWVKKSPGQGLEWIGAIYPGNGDAPYSQKFKDKATLTADKSSSTTYMQLSRLTSEDSAVYYCVRANWDVAFAYWGQGTLVSVSAAKTTAPSVYPLAPVCGDTTGSSVTLGCLVKGYFPEPVTLTWNSGSLSSGVHTFPAVLQSDLYTLSSSVTVTSSTWPSQSITCNVAHPASSTKVDKKIEPRGPTIKPCPPCKCPAPNLLGGPSVFIFPPKIKDVLMISLSPIVTCVVVDVSEDDPDVQISWFVNNVEVHTAQTQTHREDYNSTLRVVSALPIQHQDWMSGKEFKCKVNNKDLPAPIERTISKPKGSVRAPQVYVLPPPEEEMTKKQVTLTCMVTDFMPEDIYVEWTNNGKTELNYKNTEPVLDSDGSYFMYSKLRVEKKNWVERNSYSCSVVHEGLHNHHTTKSFSRTPGK
light: DIQMTQSPPSLSASLGGKVTITCKASQDIDRYMAWYQDKPGKGPRLLIHDTSTLQPGIPSRFSGSGSGRDYSFSISNLEPEDIATYYCLQYDNLWTFGGGTKLEIKRADAAPTVSIFPPSSEQLTSGGASVVCFLNNFYPKDINVKWKIDGSERQNGVLNSWTDQDSKDSTYSMSSTLTLTKDEYERHNSYTCEATHKTSTSPIVKSFNRNEC
notes: murine monoclonal IgG, kappa, from hybridoma; also called murine MAb1
